Experimental data: patent US20240117018A1 (UNIVERSITY OF MARYLAND BALTIMORE, published 2024)
Where a chain is given by its changes, count along the chain named. Like-named read-outs stand apart in the source and are kept apart here.

Key:
[1] = target: monomeric HIV-1 Ba-L gp120 (HIV-1 Ba-L)
[2] = target: monomeric HIV-1 Ba-L gp120 (HIV-1 Ba-L); remark: listed apart in the source
[3] = target: monomeric HIV-1 Ba-L gp120 (HIV-1 Ba-L); remark: listed apart in the source

B1: N49P7 (antibody)
heavy: not shown
light: QSALTQPRSVSASPGQSVTISCTGTHNLVSWCQHQPGRAPKLLIYDFNKRPSGVPDRFSGSGSGGTASLTITGLQDDDDAEYFCWAYEAFGGGTKLTVLGQPKAAPSVTLFPPSSEELQANKATLVCLISDFYPGAVTVAWKADSSPVKAGVETTTPSKQSNNKYAASSYLSLTPEQWKSHRSYSCQVTHEGSTVEKTVAPTECS
[1]
  Kd: 0.86 nM

B2: N49P7.1 (antibody)
heavy: not shown
light: B1 light with G100R
[2]
  Kd: 1.14 nM

B3: N49P11 (antibody, V domains shown)
V domain 1: SAELVQSGAVVKKPGTSVKVSCQAYGYTFTDYLIHWLRQAPGQGLEWMGWMNPVYGQVNYAQNFQGRVSMTRDIYRETAFLEVRDLKTDDTGTYYCVRDTGDGSRRHFDSINWFLDLWGRGTWIRVAP
V domain 2: QCVLTQPRSVSGSPGQSVTISCTGTHNYVSWCQHHPGNAPKLLLYDFDKRPSGISDRFSGSRSGNTASLTISGLQPEDEADYFCWAFEAFGGGTKVLVLR
[3]
  Kd: 15.6 nM
